# Measurements as given in patent US20200317768A1 (published 2020).
# Where a chain is given by its changes, count along the chain named.
# T1: human FcγRIIb extracellular domain, C-terminal His-tag (human, UniProt P31994 43-217)
# T1 construct: also called FcgRIIb (human); not shown: His-tag added to C-terminus
# T1 sequence: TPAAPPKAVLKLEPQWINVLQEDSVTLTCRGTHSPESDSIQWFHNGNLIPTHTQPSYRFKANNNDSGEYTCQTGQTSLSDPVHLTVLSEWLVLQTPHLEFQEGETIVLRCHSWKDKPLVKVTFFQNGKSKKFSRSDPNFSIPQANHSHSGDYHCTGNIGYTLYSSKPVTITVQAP
# T2: cynomolgus monkey FcγRIIa1 extracellular domain, C-terminal His-tag (cynomolgus monkey)
# T2 construct: also called cyno FcγRIIa1; cynoFcgRIIa1; not shown: His-tag added to C-terminus
# T2 chain: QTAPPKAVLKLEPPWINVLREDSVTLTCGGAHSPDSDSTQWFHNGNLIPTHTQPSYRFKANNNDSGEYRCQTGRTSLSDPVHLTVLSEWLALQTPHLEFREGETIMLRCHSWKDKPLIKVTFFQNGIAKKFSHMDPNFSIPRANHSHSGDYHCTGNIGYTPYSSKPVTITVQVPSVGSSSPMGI
# T3: cynomolgus monkey FcγRIIa2 extracellular domain, C-terminal His-tag (cynomolgus monkey)
# T3 construct: also called cyno FcγRIIa2; cynoFcgRIIa2; not shown: His-tag added to C-terminus
# T3 chain: T2 chain with P95T, T121A, I127K, A128S, K130N, D135N, R142Q
# T4: cynomolgus monkey FcγRIIb extracellular domain, C-terminal His-tag (cynomolgus monkey)
# T4 construct: also called cyno FcγRIIb; cynoFcγRIIb; not shown: His-tag added to C-terminus
# T4 chain: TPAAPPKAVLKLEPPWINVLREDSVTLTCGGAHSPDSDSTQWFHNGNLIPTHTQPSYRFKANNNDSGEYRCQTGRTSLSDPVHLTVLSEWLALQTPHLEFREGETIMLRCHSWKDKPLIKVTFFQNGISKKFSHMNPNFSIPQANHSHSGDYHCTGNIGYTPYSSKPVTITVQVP
# T5: human FcγRIIaR extracellular domain, C-terminal His-tag (human, UniProt P12318 34-217)
# T5 construct: also called human FcγRIIa (type R); FcgRIIaR; not shown: His-tag added to C-terminus
# T5 chain: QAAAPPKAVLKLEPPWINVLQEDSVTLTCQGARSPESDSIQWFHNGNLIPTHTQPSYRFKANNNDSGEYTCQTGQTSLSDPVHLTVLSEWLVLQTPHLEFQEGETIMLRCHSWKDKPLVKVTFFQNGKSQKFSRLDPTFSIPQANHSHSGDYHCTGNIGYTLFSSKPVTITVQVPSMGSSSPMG
# T6: human FcγRIIaH extracellular domain, C-terminal His-tag (human, UniProt P12318 34-217)
# T6 construct: also called human FcγRIIa (type H); FcgRIIaH; not shown: His-tag added to C-terminus
# T6 sequence: T5 chain with R134H
# T7: cynomolgus monkey FcγRIIa3 extracellular domain, C-terminal His-tag (cynomolgus monkey)
# T7 construct: also called cyno FcγRIIa3; cynoFcgRIIa3; not shown: His-tag added to C-terminus
# T7 chain: T2 chain with P95T, T121A, A128S, H133P, D135N
# B1: M103205H795-MY308/M103202L889-SK1 (antibody, human IgG1, kappa)
# heavy: QVTLKESGPVLVKPTETLTLTCTVSGIDLSHDDISWVRQAPGKGLEWVGIISYAGSTYYASWAKGRLTISKDTSKNQVVLTMTNMDPVDTATYYCARGVPAYSHGGDLWGQGTLVTVSSASTKGPSVFPLAPSSKSTSGGTAALGCLVKDYFPEPVTVSWNSGALTSGVHTFPAVLQSSGLYSLSSVVTVPSSSLGTQTYICNVNHKPSNTKVDKKVEPKSCDKTHTCPPCPAPELLTGPSVFLFPPKPKDTLMISRTPEVTCVVVDVSEEDPEVKFNWYVDGVEVHNAKTKPREEQYNSTYRVVSVLTVLHQDWLNGKEYKCKVSNKALPKPIEKTISKAKGQPREPQVYTLPPSREEMTKNQVSLTCLVKGFYPSDIAVEWESNGQPENNYKTTPPVLDSDGSFFLYSKLTVDKSRWQQGNVFSCSVMHEALHNHYTQKSLSLSP
# light: DIVMTQSPATLSLSPGERATLSCTSSQSVYHANWLSWFQQKPGQPPKLLIYWASTLAYGVPSRFSGSGSGTDFTLTISSLQPEDAATYYCAGGYGGGRYAFGQGTKVEIKRTVAAPSVFIFPPSDEQLKSGTASVVCLLNNFYPREAKVQWKVDNALQSGNSQESVTEQDSKDSTYSLSSTLTLSKADYEKHKVYACEVTHQGLSSPVTKSFNRGEC
# B2: M103205H795-MY312/M103202L889-SK1 (antibody, human IgG1, kappa)
# heavy: B1 heavy with K328T, P398M
# light: B1 light
# B3: M103205H795-MY309/M103202L889-SK1 (antibody, human IgG1, kappa)
# heavy: B1 heavy with P398M
# light: B1 light
# B4: M103205H795-MY321/M103202L889-SK1 (antibody, human IgG1, kappa)
# heavy: B1 heavy with T238H, E270D, P398M
# light: B1 light
# B5: M103205H795-MY311/M103202L889-SK1 (antibody, human IgG1, kappa)
# heavy: B1 heavy with Q297L
# light: B1 light
# B6: M103205H795-MY310/M103202L889-SK1 (antibody, human IgG1, kappa)
# heavy: B1 heavy with K328T
# light: B1 light
# B7: M103205H795-MY318/M103202L889-SK1 (antibody, human IgG1, kappa)
# heavy: B1 heavy with T238L, K328T, P398M
# light: B1 light
# Target: T1, human FcγRIIb extracellular domain, …
# Experiment: SPR (Biacore), antibody captured, FcgR analyte, 25 C
row,Kd [nM],Binder
1,4100,B1
2,1100,B2
3,1600,B3
4,2600,B4
5,2100,B5
6,2900,B6
7,4800,B7

# Target: T8, human FcγRIIIaV extracellular domain, C-terminal His-tag (human, UniProt P08637 17-208)
# T8 construct: also called FcgRIIIaV; not shown: His-tag added to C-terminus
# Experiment: SPR (Biacore), KD of SG1 / KD of variant;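 also: relative to parent M103205H795-SG1 carrying the SG1 human heavy chain constant region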
# T8 sequence (P08637 17-208 F176V): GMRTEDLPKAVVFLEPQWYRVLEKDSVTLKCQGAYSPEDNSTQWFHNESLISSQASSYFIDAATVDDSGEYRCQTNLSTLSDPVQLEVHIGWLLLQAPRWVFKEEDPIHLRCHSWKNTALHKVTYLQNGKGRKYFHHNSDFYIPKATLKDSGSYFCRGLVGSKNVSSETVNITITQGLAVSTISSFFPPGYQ
row,KD fold (SG1 = 1) [fold],Binder
1,0.03,B1
2,0.29,B2
3,0.19,B3
4,0.74,B4
5,0.11,B5
6,0.12,B6
7,0.05,B7

# Target: T2, cynomolgus monkey FcγRIIa1 …
# Experiment: SPR (Biacore), KD of SG1 / KD of variant;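 also: relative to parent M103205H795-SG1 carrying the SG1 human heavy chain constant region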
row,KD fold (SG1 = 1) [fold],Binder
1,1,B1
2,2.3,B2
3,1.3,B3
4,1.4,B4
5,1.4,B5
6,1.1,B6
7,0.4,B7

# Target: T3, cynomolgus monkey FcγRIIa2 …
# Experiment: SPR (Biacore), KD of SG1 / KD of variant;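 also: relative to parent M103205H795-SG1 carrying the SG1 human heavy chain constant region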
row,KD fold (SG1 = 1) [fold],Binder
1,1.9,B1
2,3.4,B2
3,2,B3
4,2.3,B4
5,1.5,B5
6,1.8,B6
7,0.7,B7

# Target: T4, cynomolgus monkey FcγRIIb extracellular …
# Experiment: SPR (Biacore), KD of SG1 / KD of variant;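 also: relative to parent M103205H795-SG1 carrying the SG1 human heavy chain constant region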
row,KD fold (SG1 = 1) [fold],Binder
1,1.2,B1
2,4.5,B2
3,2.9,B3
4,2.8,B4
5,2.3,B5
6,1.9,B6
7,0.8,B7

# Target: T1, human FcγRIIb extracellular domain, …
# Experiment: SPR (Biacore), KD of SG1 / KD of variant
row,KD fold (SG1 = 1) [fold],Binder
1,1.1,B1
2,4.2,B2
3,2.9,B3
4,1.8,B4
5,2.2,B5
6,1.6,B6
7,1,B7

# Target: T5, human FcγRIIaR extracellular domain, …
# Experiment: SPR (Biacore), KD of SG1 / KD of variant
row,KD fold (SG1 = 1) [fold],Binder
1,1.3,B1
2,6.5,B2
3,4.3,B3
4,2.9,B4
5,2.4,B5
6,2,B6
7,0.8,B7

# Target: T6, human FcγRIIaH extracellular domain, …
# Experiment: SPR (Biacore), KD of SG1 / KD of variant
row,KD fold (SG1 = 1) [fold],Binder
1,1.5,B1
2,6.3,B2
3,4.9,B3
4,3.7,B4
5,3.5,B5
6,1.7,B6
7,0.6,B7

# Target: T7, cynomolgus monkey FcγRIIa3 …
# Experiment: SPR (Biacore), KD of SG1 / KD of variant
row,KD fold (SG1 = 1) [fold],Binder
1,1.3,B1
2,4.6,B2
3,2.4,B3
4,3.9,B4
5,2,B5
6,2.4,B6
7,0.5,B7
